Source: patent publication US20220411504A1

Target: Human CD3 epsilon (CD3ε) of the T cell receptor complex on cells (human) (UniProt P07766)
Experiment: flow cytometry on Jurkat cells, 10 nM antibody

Chain of Human CD3 epsilon (CD3ε) of the T cell receptor complex on cells (human) (P07766 23-207 limits assumed, one chain of several): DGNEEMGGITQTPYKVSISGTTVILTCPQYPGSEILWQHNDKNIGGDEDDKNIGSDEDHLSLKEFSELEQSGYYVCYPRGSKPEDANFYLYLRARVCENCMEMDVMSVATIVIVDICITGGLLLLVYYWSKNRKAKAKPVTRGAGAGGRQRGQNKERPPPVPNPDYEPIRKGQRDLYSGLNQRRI

MFI (arbitrary units): 89200
Substance: UCHT1 (antibody)
